# Data reported in publication PMC3328597.
# Legend:
# [1] = target: His168 (UniProt position 168, …); test: NMR; conditions: 50 mM NaCl; 20 mM Tris acetate; free Thr171-phosphorylated peptide, no RNA
# [2] = target: His161 (UniProt position 161, …); test: NMR; conditions: 50 mM NaCl; 20 mM Tris acetate; free Thr171-phosphorylated peptide, no RNA
protein,measurement,setting,value
HLRQPGIHPKTPNKFKKYSR,pKa,[1],5.6
same,pKa,[2],6.4
